Assay results published in publication doi:10.1101/2025.10.10.681541, “Visualizing the mechanism of quinol oxidation and inhibition of a bd-type oxidase using cryo-EM” (bioRxiv, 2025).

Experiments:
[1] = molecular target: T1, E. coli cytochrome bd-I subunit CydA (E. coli, UniProt P0ABJ9 1-522); assay: cryo-EM structure; purified Ecbd in LMNG micelles (unbound, Aurachin D bound) or in MSP1D1 PC nanodiscs doped with 5% menaquinone-9; monomeric and dimeric particles on the same grids; conditions: both partners purified
T1 construct: CydA, subunit of E. coli cytochrome bd-I (Ecbd); harbours hemes b558, b595 and d and the Q-loop; Co-expressed and co-purified with CydB, CydX and CydH; never isolated on its own
T1 sequence: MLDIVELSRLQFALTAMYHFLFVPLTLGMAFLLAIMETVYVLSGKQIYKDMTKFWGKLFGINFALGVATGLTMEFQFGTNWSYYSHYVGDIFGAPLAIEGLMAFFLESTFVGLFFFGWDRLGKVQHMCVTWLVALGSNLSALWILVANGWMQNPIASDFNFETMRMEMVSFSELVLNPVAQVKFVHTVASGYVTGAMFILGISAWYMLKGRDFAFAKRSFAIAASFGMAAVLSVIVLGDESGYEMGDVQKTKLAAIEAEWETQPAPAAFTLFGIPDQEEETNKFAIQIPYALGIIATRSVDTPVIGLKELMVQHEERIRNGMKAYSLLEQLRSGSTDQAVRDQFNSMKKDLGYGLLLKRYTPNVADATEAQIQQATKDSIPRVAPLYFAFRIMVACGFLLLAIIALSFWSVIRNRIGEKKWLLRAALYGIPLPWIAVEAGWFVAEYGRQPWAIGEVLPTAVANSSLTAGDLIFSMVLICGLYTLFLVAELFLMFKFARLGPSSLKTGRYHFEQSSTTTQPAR

[2] = molecular target: the molecule itself; assay: as above

binding result [1]: binds
B1: E. coli cytochrome bd-I subunit CydX (natural protein)
chain: MWYFAWILGTLLACSFGVITALALEHVESGKAGQEDI
notes: CydX, single-helix subunit of E. coli cytochrome bd-I (Ecbd)
binding result [2]: binds
